Changes are numbered by the printed parent chain.
T1: BCMA (human, UniProt Q02223 1-54, limits assumed)
T1 construct: also called B cell maturation antigen; TNFRSF17
T1 sequence (looked up): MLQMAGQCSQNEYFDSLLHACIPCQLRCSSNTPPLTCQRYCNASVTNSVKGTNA

T2: BCMA on cells (JEKO cells, plasmablasts) (human, UniProt Q02223 1-184)
T2 sequence (looked up): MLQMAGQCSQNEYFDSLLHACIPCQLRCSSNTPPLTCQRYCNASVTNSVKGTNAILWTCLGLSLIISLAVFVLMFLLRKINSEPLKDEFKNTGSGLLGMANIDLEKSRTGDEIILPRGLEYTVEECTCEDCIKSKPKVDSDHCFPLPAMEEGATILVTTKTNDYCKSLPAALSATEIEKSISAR

T3: Human BCMA, TPP208 (human, UniProt Q02223 1-54, limits assumed)
T3 construct: also called Antigen 1
T3 sequence (looked up): T1 sequence (looked up)

B1: Mab101 (bispecific antibody, human IgG1, L234A L235A)
heavy 1: not shown
heavy 2: not shown
light 1: not shown
light 2: EVQLLESGGGLVQPGGSLRLSCAASGFTFSTYAMNWVRQAPGKGLEWVSRIRSKYNNYATYYADSVKGRFTISRDDSKNTLYLQMNSLRAEDTAVYYCVRHGNFGNSYVSWFAYWGQGTLVTVSSASVAAPSVFIFPPSDEQLKSGTASVVCLLNNFYPREAKVQWKVDNALQSGNSQESVTEQDSKDSTYSLSSTLTLSKADYEKHKVYACEVTHQGLSSPVTKSFNRGEC
notes: also called BCMA TCE; BCMA T cell engager
B2: Mab102 (bispecific antibody, human IgG1, L234A L235A)
heavy 1: EVQLLESGGGLVQPGGSLRLSCAASGFTFSDNAMGWVRQAPGKGLEWVSAISGPGSSTYYADSVKGRFTISRDNSKNTLYLQMNSLRAEDTAVYYCAKVLGWFDYWGQGTLVTVSSASTKGPSVFPLAPSSKSTSGGTAWLGCEVTDYFPEPVTVSWNSGALTSGVHTFPAVLESSGLYSLSSVVTVPSSSLGTQTYICNVNHKPSNTKVDKKVEPKSCDKTHTCPPCPAPEAAGGPSVFLFPPKPKDTLMISRTPEVTCVVVDVSHEDPEVKFNWYVDGVEVHNAKTKPREEQYNSTYRVVSVLTVLHQDWLNGKEYKCKVSNKALGAPIEKTISKAKGQPREPQVYVYPPSREEMTKNQVSLTCLVKGFYPSDIAVEWESNGQPENNYKTTPPVLDSDGSFALVSKLTVDKSRWQQGNVFSCSVMHEALHNHYTQKSLSLSPG
heavy 2: EVQLLESGGGLVQPGGSLRLSCAASGFTFSDNAMGWVRQAPGKGLEWVSAISGPGSSTYYADSVKGRFTISRDNSKNTLYLQMNSLRAEDTAVYYCAKVLGWFDYWGQGTLVTVSSASTKGPSVFPLAPSSKSTSGGTAWLGCEVTDYFPEPVTVSWNSGALTSGVHTFPAVLESSGLYSLSSVVTVPSSSLGTQTYICNVNHKPSNTKVDKKVEPKSCDGGGGSGGGGSQAVVTQEPSLTVSPGGTVTLTCGSSTGAVTTSNYANWVQEKPGQAFRGLIGGTNKRAPGTPARFSGSLLGGKAALTLSGAQPEDEAEYYCALWYSNLWVFGGGTKLTVLSSASTKGPSVFPLAPSSKSTSGGTAALGCLVKDYFPEPVTVSWNSGALTSGVHTFPAVLQSSGLYSLSSVVTVPSSSLGTQTYICNVNHKPSNTKVDKKVEPKSCDKTHTCPPCPAPEAAGGPSVFLFPPKPKDTLMISRTPEVTCVVVDVSHEDPEVKFNWYVDGVEVHNAKTKPREEQYNSTYRVVSVLTVLHQDWLNGKEYKCKVSNKALGAPIEKTISKAKGQPREPQVYVLPPSREEMTKNQVSLLCLVKGFYPSDIAVEWESNGQPENNYLTWPPVLDSDGSFFLYSKLTVDKSRWQQGNVFSCSVMHEALHNHYTQKSLSLSPG
light 1: EIVLTQSPGTLSLSPGERATLSCRASQSVSSYYLAWYQQKPGQAPRLLISGAGSRATGIPDRFSGSGSGTDFTLTISRLEPEDFAVYYCQQYGYPPDFTFGQGTKVEIKRTVAAPSVAIFPPSDERLKSGTASVVCVLNNFYPREAKVQWKVDNALQSGNSQESVTEQDSKDSTYSLSSRLTLSKADYEKHKVYACEVTHQGLSSPVTKSFNRGEC
light 2: B1 light 2
notes: as for B1
B3: CC-93269 (bispecific antibody, human IgG1, kappa, L234A L235A)
heavy 1: not shown
heavy 2: EVQLLESGGGLVQPGGSLRLSCAASGFTFSDNAMGWVRQAPGKGLEWVSAISGPGSSTYYADSVKGRFTISRDNSKNTLYLQMNSLRAEDTAVYYCAKVLGWFDYWGQGTLVTVSSASTKGPSVFPLAPSSKSTSGGTAALGCLVEDYFPEPVTVSWNSGALTSGVHTFPAVLQSSGLYSLSSVVTVPSSSLGTQTYICNVNHKPSNTKVDEKVEPKSCDKTHTCPPCPAPEAAGGPSVFLFPPKPKDTLMISRTPEVTCVVVDVSHEDPEVKFNWYVDGVEVHNAKTKPREEQYNSTYRVVSVLTVLHQDWLNGKEYKCKVSNKALGAPIEKTISKAKGQPREPQVCTLPPSRDELTKNQVSLSCAVKGFYPSDIAVEWESNGQPENNYKTTPPVLDSDGSFFLVSKLTVDKSRWQQGNVFSCSVMHEALHNHYTQKSLSLSPGK
light 1: EIVLTQSPGTLSLSPGERATLSCRASQSVSDEYLSWYQQKPGQAPRLLIHSASTRATGIPDRFSGSGSGTDFTLAISRLEPEDFAVYYCQQYGYPPDFTFGQGTKVEIKRTVAAPSVFIFPPSDRKLKSGTASVVCLLNNFYPREAKVQWKVDNALQSGNSQESVTEQDSKDSTYSLSSTLTLSKADYEKHKVYACEVTHQGLSSPVTKSFNRGEC
light 2: B1 light 2
notes: also called 42-TCBcv; BCMA TCE
B4: 83A10-TCBcv (bispecific antibody, human IgG1, kappa, L234A L235A)
heavy 1: not shown
heavy 2: not shown
light 1: not shown
light 2: B1 light 2
B5: 22-TCBcv (bispecific antibody, human IgG1, kappa, L234A L235A)
heavy 1: not shown
heavy 2: B3 heavy 2
light 1: B2 light 1 with A118F, E125R, R126K, V137L, R180T
light 2: B1 light 2

What was measured:
BCMA = biological target: T1, BCMA
[1] = biological target: T2, BCMA on cells (JEKO cells, plasmablasts); test: cell-based or functional assay
[2] = biological target: T2, BCMA on cells (JEKO cells, plasmablasts); test: cell-based or functional assay; remark: listed apart in the source
[3] = biological target: T2, BCMA on cells (JEKO cells, plasmablasts); test: cell-based or functional assay; remark: listed apart in the source
Human BCMA, TPP208 [4] = biological target: T3, Human BCMA, TPP208; test: SPR (Biacore T200), single-cycle kinetics, antibody captured on anti-human IgG, antigen injected; sensorgram of sample stored at pH 4, 40 C compared with the non-stressed standard
Procedure: (§1) SPR experiments were performed using a Biacore T200 system (GE Healthcare, Uppsala, Sweden) with analysis and sample compartment temperatures set at 25° C. and 7° C. respectively.
(§2) Anti-Human IgG (from anti-human IgG Capture Kit) was amine coupled to the surface of a CM5 chip according to the manufacturer's instructions. Molecule bispecific antibodies diluted to 1 μg/mL in running buffer were captured on the chip surface in a 60 s injection. Following the single-cycle kinetics procedure, antigen was next injected five times (30 s per injection) at incrementally increasing concentrations at a flow rate of 30 μL/min. Antigen concentrations ranged from 0.08 to 50 nM for BCMA and between 12.7 to 1000 nM for CD3. A 300 s dissociation time was added after the last antigen injection. Following each experiment, all flow cells were regenerated using a 30 s injection of 3M MgCl₂.
(§3) Prior to analysis, data were double referenced by first subtracting data from a reference flow cell and then subtracting a blank cycle where buffer was injected instead of antigen. The sensorgram comparison analysis was implemented using a Biacore T200 (software version 3.0). All data were normalized with respect to the response where 100% reflects the maximum binding obtained during injection and 0% reflects the baseline. Average and ±3 standard deviation (SD) sensorgrams were calculated from ten or more independent sensorgrams of each molecule's non-stressed material (standard). For quantitation of binding similarities of the stressed samples against the corresponding non-stressed standard, sample sensorgrams were co-evaluated with the sensorgrams of the standard. The degree of similarity was calculated based on how many sample data points fell inside or outside the ±3 standard deviation limits according to Equation 2, where SSQ is the sum of squares (Karlsson, R, Pol, E., and Frostell, A. (2016); Analytical Biochemistry 502, 53-63).

Human CD3ED, TPP401 [5] = biological target: T4, Human CD3ED, TPP401 (human, UniProt P07766 23-126; P04234 22-105); test: as above
T4 construct: 'CD3ED' is read here as the CD3 epsilon/delta pair; also called Antigen 2
Procedure: as §1, §2, §3

Human BCMA, TPP208 [6] = biological target: T3, Human BCMA, TPP208; test: SPR (Biacore T200), single-cycle kinetics, antibody captured on anti-human IgG, antigen injected; sensorgram of sample stored at pH 6, 40 C compared with the non-stressed standard
Procedure: as §1, §2, §3

Human CD3ED, TPP401 [7] = biological target: T4, Human CD3ED, TPP401; test: as above
Procedure: as §1, §2, §3

Human BCMA, TPP208 [8] = biological target: T3, Human BCMA, TPP208; test: SPR (Biacore T200), single-cycle kinetics, antibody captured on anti-human IgG, antigen injected; sensorgram of sample stored at pH 8, 40 C compared with the non-stressed standard
Procedure: as §1, §2, §3

Human CD3ED, TPP401 [9] = biological target: T4, Human CD3ED, TPP401; test: as above
Procedure: as §1, §2, §3

Human BCMA, TPP208 [10] = biological target: T3, Human BCMA, TPP208; test: SPR (Biacore T200), single-cycle kinetics, antibody captured on anti-human IgG, antigen injected; sensorgram of sample stored at pH 6 with tert-butyl peroxide, 40 C compared with the non-stressed standard
Procedure: as §1, §2, §3

Human CD3ED, TPP401 [11] = biological target: T4, Human CD3ED, TPP401; test: as above
Procedure: as §1, §2, §3

[12] = biological target: T2, BCMA on cells (JEKO cells, plasmablasts); test: cell-based or functional assay; remark: listed apart in the source
[13] = biological target: T2, BCMA on cells (JEKO cells, plasmablasts); test: cell-based or functional assay; remark: listed apart in the source

T4 sequence (P07766 23-126, chain 1 of 2): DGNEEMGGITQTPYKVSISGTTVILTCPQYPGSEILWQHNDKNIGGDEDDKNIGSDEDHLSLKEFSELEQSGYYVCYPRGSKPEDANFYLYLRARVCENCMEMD
T4 sequence (P04234 22-105, chain 2 of 2): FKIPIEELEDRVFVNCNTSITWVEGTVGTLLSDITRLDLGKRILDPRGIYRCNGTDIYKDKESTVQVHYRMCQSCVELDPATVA

Row | Binder | Kd (BCMA) [nM] | EC50 for JEKO cell killing (nM), T cell-mediated, annexin V, 20 h, T:E 1:2 [1] [nM] | EC50 for BM plasmablast killing (nM), bone marrow mononuclear cells, 24 h [2] [nM] | EC50 PB killing (nM), AAV-1 (n = 1) [3] [nM] | pH 4 SPR % similarity-BCMA (Human BCMA, TPP208 [4]) [%] | pH 4 SPR % similarity-CD3 (Human CD3ED, TPP401 [5]) [%] | pH 6 SPR % similarity-BCMA (Human BCMA, TPP208 [6]) [%] | pH 6 SPR % similarity-CD3 (Human CD3ED, TPP401 [7]) [%] | pH 8 SPR % similarity-BCMA (Human BCMA, TPP208 [8]) [%] | pH 8 SPR % similarity-CD3 (Human CD3ED, TPP401 [9]) [%] | pH 6-TBP SPR % similarity-BCMA (Human BCMA, TPP208 [10]) [%] | pH 6-TBP SPR % similarity-CD3 (Human CD3ED, TPP401 [11]) [%] | further results
1 | B1 | 1.1 | 5.72 | 0.266 | 0.236 | 100 | 99.9 | 100 | 100 | 99.9 | 71.5 | 82.5 | 75.3 | EC50 PB killing (nM), healthy volunteers (n = 2) [3]: 0.257 nM
2 | B2 | 0.06 | 0.12 | 0.00281 | 0.003 | 100 | 100 | 99.4 | 100 | 95.7 | 70.1 | 54 | 72.3 | EC50 PB killing (nM), healthy volunteers (n = 3) [3]: 0.007 nM
3 | B3 | 0.14 | 2.79 | 0.0201 | 0.01 |  |  |  |  |  |  |  |  | EC50 for plasmablast killing in AAV, PBMC, 24 h [12]: 0.007 nM; EC50 for plasmablast killing in RA, PBMC, 24 h [12]: 0.001 nM; EC50 for plasmablast killing in SLE (n=5), PBMC, 24 h [12]: 0.01 nM; EC50 for plasmablast killing in healthy volunteers (n=12), PBMC, 24 h [12]: 0.005 nM; EC50 PB killing (nM), healthy volunteers (n = 6) [3]: 0.029 nM; Plasmablast depletion EC50 (nM), PBMC from healthy volunteers, soluble BCMA 0 ng/ml [13]: 0.005 nM; Plasmablast depletion EC50 (nM), PBMC from healthy volunteers, soluble BCMA 16.8 ng/ml [13]: 0.025 nM; Plasmablast depletion EC50 (nM), PBMC from healthy volunteers, soluble BCMA 33.6 ng/ml [13]: 0.13 nM; Plasmablast depletion EC50 (nM), PBMC from healthy volunteers, soluble BCMA 67.6 ng/ml [13]: 0.32 nM
4 | B4 |  |  |  |  | 99.4 | 100 | 100 | 99.9 | 90.8 | 57.5 | 72 | 59.7 | 
5 | B5 |  |  |  |  | 84.8 | 99.6 | 99.8 | 99.5 | 95.8 | 59.5 | 71.9 | 58.5 | 

Source: patent publication US20240052064A1 (Bristol-Myers Squibb, published 2024)
